From patent US20260015399A1 (Boehringer Ingelheim, published 2026)
*1 amine or outer side, *2 acyl side, *3 side chain or, on linkers, in order; H or OH if unused. Side-chain parts run from the residue outwards. The star is where a group is joined. C18 diacid = O=C(O)CCCCCCCCCCCCCCCCC(=O)*; γGlu = O=C(O)[C@H](CCC(=O)[*:2])N[*:1]; Isovaleryl = CC(C)CC(=O)*; Ahx = NCCCCCC(=O)O

Biological target: T1, human NPY2 receptor (human, UniProt P49146 1-381)
T1 construct: whole, on cells; also called hNPY2-R; hNPY2R
T1 sequence (looked up): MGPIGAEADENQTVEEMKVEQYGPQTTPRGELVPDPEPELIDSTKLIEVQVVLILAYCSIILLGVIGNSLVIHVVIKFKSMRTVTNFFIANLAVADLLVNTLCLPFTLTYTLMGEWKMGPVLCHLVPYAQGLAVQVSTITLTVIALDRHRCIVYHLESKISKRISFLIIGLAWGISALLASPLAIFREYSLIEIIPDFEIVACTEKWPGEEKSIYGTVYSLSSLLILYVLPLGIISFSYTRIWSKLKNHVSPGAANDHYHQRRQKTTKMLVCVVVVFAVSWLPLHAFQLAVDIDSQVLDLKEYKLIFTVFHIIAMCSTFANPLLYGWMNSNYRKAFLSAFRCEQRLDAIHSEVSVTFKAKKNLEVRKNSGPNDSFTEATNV
Assay: RLB: displacement of 125I-PYY(1-36) from hNPY2R membranes

B1: Compound 179 (peptide)
peptide: Isovaleryl-APEK([Ahx-γGlu-C18 diacid])PEADASPEETQRYYVALRHYYNWLTRQRY-NH2
SMILES: CC(C)CC(=O)N[C@@H](C)C(=O)N1CCC[C@H]1C(=O)N[C@@H](CCC(=O)O)C(=O)N[C@@H](CCCCNC(=O)CCCCCNC(=O)CC[C@H](NC(=O)CCCCCCCCCCCCCCCCC(=O)O)C(=O)O)C(=O)N1CCC[C@H]1C(=O)N[C@@H](CCC(=O)O)C(=O)N[C@@H](C)C(=O)N[C@@H](CC(=O)O)C(=O)N[C@@H](C)C(=O)N[C@@H](CO)C(=O)N1CCC[C@H]1C(=O)N[C@@H](CCC(=O)O)C(=O)N[C@@H](CCC(=O)O)C(=O)N[C@H](C(=O)N[C@@H](CCC(N)=O)C(=O)N[C@@H](CCCNC(=N)N)C(=O)N[C@@H](Cc1ccc(O)cc1)C(=O)N[C@@H](Cc1ccc(O)cc1)C(=O)N[C@H](C(=O)N[C@@H](C)C(=O)N[C@@H](CC(C)C)C(=O)N[C@@H](CCCNC(=N)N)C(=O)N[C@@H](Cc1c[nH]cn1)C(=O)N[C@@H](Cc1ccc(O)cc1)C(=O)N[C@@H](Cc1ccc(O)cc1)C(=O)N[C@@H](CC(N)=O)C(=O)N[C@@H](Cc1c[nH]c2ccccc12)C(=O)N[C@@H](CC(C)C)C(=O)N[C@H](C(=O)N[C@@H](CCCNC(=N)N)C(=O)N[C@@H](CCC(N)=O)C(=O)N[C@@H](CCCNC(=N)N)C(=O)N[C@@H](Cc1ccc(O)cc1)C(N)=O)[C@@H](C)O)C(C)C)[C@@H](C)O
Ki: 0.89 nM

B2: Compound 188 (peptide)
peptide: Isovaleryl-APEK([Ahx-γGlu-C18 diacid])PEEDATPEELQRYYVSLRHYYNWLQRQRY-NH2
SMILES: CC(C)CC(=O)N[C@@H](C)C(=O)N1CCC[C@H]1C(=O)N[C@@H](CCC(=O)O)C(=O)N[C@@H](CCCCNC(=O)CCCCCNC(=O)CC[C@H](NC(=O)CCCCCCCCCCCCCCCCC(=O)O)C(=O)O)C(=O)N1CCC[C@H]1C(=O)N[C@@H](CCC(=O)O)C(=O)N[C@@H](CCC(=O)O)C(=O)N[C@@H](CC(=O)O)C(=O)N[C@@H](C)C(=O)N[C@H](C(=O)N1CCC[C@H]1C(=O)N[C@@H](CCC(=O)O)C(=O)N[C@@H](CCC(=O)O)C(=O)N[C@@H](CC(C)C)C(=O)N[C@@H](CCC(N)=O)C(=O)N[C@@H](CCCNC(=N)N)C(=O)N[C@@H](Cc1ccc(O)cc1)C(=O)N[C@@H](Cc1ccc(O)cc1)C(=O)N[C@H](C(=O)N[C@@H](CO)C(=O)N[C@@H](CC(C)C)C(=O)N[C@@H](CCCNC(=N)N)C(=O)N[C@@H](Cc1c[nH]cn1)C(=O)N[C@@H](Cc1ccc(O)cc1)C(=O)N[C@@H](Cc1ccc(O)cc1)C(=O)N[C@@H](CC(N)=O)C(=O)N[C@@H](Cc1c[nH]c2ccccc12)C(=O)N[C@@H](CC(C)C)C(=O)N[C@@H](CCC(N)=O)C(=O)N[C@@H](CCCNC(=N)N)C(=O)N[C@@H](CCC(N)=O)C(=O)N[C@@H](CCCNC(=N)N)C(=O)N[C@@H](Cc1ccc(O)cc1)C(N)=O)C(C)C)[C@@H](C)O
Ki: 5.46 nM

B3: Compound 187 (peptide)
peptide: Isovaleryl-APEK([Ahx-γGlu-C18 diacid])PEEDATPEEPQRYYVSLRHYYNWLTRQRY-NH2
SMILES: CC(C)CC(=O)N[C@@H](C)C(=O)N1CCC[C@H]1C(=O)N[C@@H](CCC(=O)O)C(=O)N[C@@H](CCCCNC(=O)CCCCCNC(=O)CC[C@H](NC(=O)CCCCCCCCCCCCCCCCC(=O)O)C(=O)O)C(=O)N1CCC[C@H]1C(=O)N[C@@H](CCC(=O)O)C(=O)N[C@@H](CCC(=O)O)C(=O)N[C@@H](CC(=O)O)C(=O)N[C@@H](C)C(=O)N[C@H](C(=O)N1CCC[C@H]1C(=O)N[C@@H](CCC(=O)O)C(=O)N[C@@H](CCC(=O)O)C(=O)N1CCC[C@H]1C(=O)N[C@@H](CCC(N)=O)C(=O)N[C@@H](CCCNC(=N)N)C(=O)N[C@@H](Cc1ccc(O)cc1)C(=O)N[C@@H](Cc1ccc(O)cc1)C(=O)N[C@H](C(=O)N[C@@H](CO)C(=O)N[C@@H](CC(C)C)C(=O)N[C@@H](CCCNC(=N)N)C(=O)N[C@@H](Cc1c[nH]cn1)C(=O)N[C@@H](Cc1ccc(O)cc1)C(=O)N[C@@H](Cc1ccc(O)cc1)C(=O)N[C@@H](CC(N)=O)C(=O)N[C@@H](Cc1c[nH]c2ccccc12)C(=O)N[C@@H](CC(C)C)C(=O)N[C@H](C(=O)N[C@@H](CCCNC(=N)N)C(=O)N[C@@H](CCC(N)=O)C(=O)N[C@@H](CCCNC(=N)N)C(=O)N[C@@H](Cc1ccc(O)cc1)C(N)=O)[C@@H](C)O)C(C)C)[C@@H](C)O
Ki: 15.3 nM

B4: Compound 180 (peptide)
peptide: Isovaleryl-APEK([Ahx-γGlu-C18 diacid])PEEDATPEELQRYYVSLRHYYNWLTKQRY-NH2
SMILES: CC(C)CC(=O)N[C@@H](C)C(=O)N1CCC[C@H]1C(=O)N[C@@H](CCC(=O)O)C(=O)N[C@@H](CCCCNC(=O)CCCCCNC(=O)CC[C@H](NC(=O)CCCCCCCCCCCCCCCCC(=O)O)C(=O)O)C(=O)N1CCC[C@H]1C(=O)N[C@@H](CCC(=O)O)C(=O)N[C@@H](CCC(=O)O)C(=O)N[C@@H](CC(=O)O)C(=O)N[C@@H](C)C(=O)N[C@H](C(=O)N1CCC[C@H]1C(=O)N[C@@H](CCC(=O)O)C(=O)N[C@@H](CCC(=O)O)C(=O)N[C@@H](CC(C)C)C(=O)N[C@@H](CCC(N)=O)C(=O)N[C@@H](CCCNC(=N)N)C(=O)N[C@@H](Cc1ccc(O)cc1)C(=O)N[C@@H](Cc1ccc(O)cc1)C(=O)N[C@H](C(=O)N[C@@H](CO)C(=O)N[C@@H](CC(C)C)C(=O)N[C@@H](CCCNC(=N)N)C(=O)N[C@@H](Cc1c[nH]cn1)C(=O)N[C@@H](Cc1ccc(O)cc1)C(=O)N[C@@H](Cc1ccc(O)cc1)C(=O)N[C@@H](CC(N)=O)C(=O)N[C@@H](Cc1c[nH]c2ccccc12)C(=O)N[C@@H](CC(C)C)C(=O)N[C@H](C(=O)N[C@@H](CCCCN)C(=O)N[C@@H](CCC(N)=O)C(=O)N[C@@H](CCCNC(=N)N)C(=O)N[C@@H](Cc1ccc(O)cc1)C(N)=O)[C@@H](C)O)C(C)C)[C@@H](C)O
Ki: 15.1 nM

B5: Compound 181 (peptide)
peptide: Isovaleryl-APAK([Ahx-γGlu-C18 diacid])PEADAEPEEIQRYYVALRHYYNWLTRQRY-NH2
SMILES: CC[C@H](C)[C@H](NC(=O)[C@H](CCC(=O)O)NC(=O)[C@H](CCC(=O)O)NC(=O)[C@@H]1CCCN1C(=O)[C@H](CCC(=O)O)NC(=O)[C@H](C)NC(=O)[C@H](CC(=O)O)NC(=O)[C@H](C)NC(=O)[C@H](CCC(=O)O)NC(=O)[C@@H]1CCCN1C(=O)[C@H](CCCCNC(=O)CCCCCNC(=O)CC[C@H](NC(=O)CCCCCCCCCCCCCCCCC(=O)O)C(=O)O)NC(=O)[C@H](C)NC(=O)[C@@H]1CCCN1C(=O)[C@H](C)NC(=O)CC(C)C)C(=O)N[C@@H](CCC(N)=O)C(=O)N[C@@H](CCCNC(=N)N)C(=O)N[C@@H](Cc1ccc(O)cc1)C(=O)N[C@@H](Cc1ccc(O)cc1)C(=O)N[C@H](C(=O)N[C@@H](C)C(=O)N[C@@H](CC(C)C)C(=O)N[C@@H](CCCNC(=N)N)C(=O)N[C@@H](Cc1c[nH]cn1)C(=O)N[C@@H](Cc1ccc(O)cc1)C(=O)N[C@@H](Cc1ccc(O)cc1)C(=O)N[C@@H](CC(N)=O)C(=O)N[C@@H](Cc1c[nH]c2ccccc12)C(=O)N[C@@H](CC(C)C)C(=O)N[C@H](C(=O)N[C@@H](CCCNC(=N)N)C(=O)N[C@@H](CCC(N)=O)C(=O)N[C@@H](CCCNC(=N)N)C(=O)N[C@@H](Cc1ccc(O)cc1)C(N)=O)[C@@H](C)O)C(C)C
Ki: 1.33 nM

B6: Compound 185 (peptide)
peptide: Isovaleryl-APAK([Ahx-γGlu-C18 diacid])PEEDASEEELQRYYVSLRHYYNWLTRQRY-NH2
SMILES: CC(C)CC(=O)N[C@@H](C)C(=O)N1CCC[C@H]1C(=O)N[C@@H](C)C(=O)N[C@@H](CCCCNC(=O)CCCCCNC(=O)CC[C@H](NC(=O)CCCCCCCCCCCCCCCCC(=O)O)C(=O)O)C(=O)N1CCC[C@H]1C(=O)N[C@@H](CCC(=O)O)C(=O)N[C@@H](CCC(=O)O)C(=O)N[C@@H](CC(=O)O)C(=O)N[C@@H](C)C(=O)N[C@@H](CO)C(=O)N[C@@H](CCC(=O)O)C(=O)N[C@@H](CCC(=O)O)C(=O)N[C@@H](CCC(=O)O)C(=O)N[C@@H](CC(C)C)C(=O)N[C@@H](CCC(N)=O)C(=O)N[C@@H](CCCNC(=N)N)C(=O)N[C@@H](Cc1ccc(O)cc1)C(=O)N[C@@H](Cc1ccc(O)cc1)C(=O)N[C@H](C(=O)N[C@@H](CO)C(=O)N[C@@H](CC(C)C)C(=O)N[C@@H](CCCNC(=N)N)C(=O)N[C@@H](Cc1c[nH]cn1)C(=O)N[C@@H](Cc1ccc(O)cc1)C(=O)N[C@@H](Cc1ccc(O)cc1)C(=O)N[C@@H](CC(N)=O)C(=O)N[C@@H](Cc1c[nH]c2ccccc12)C(=O)N[C@@H](CC(C)C)C(=O)N[C@H](C(=O)N[C@@H](CCCNC(=N)N)C(=O)N[C@@H](CCC(N)=O)C(=O)N[C@@H](CCCNC(=N)N)C(=O)N[C@@H](Cc1ccc(O)cc1)C(N)=O)[C@@H](C)O)C(C)C
Ki: 2.06 nM
